# Measurements reported in publication PMC5558430 (The Biochemical journal, 2017).
# B1: GTP cyclohydrolase IB (GCYH-IB) (Neisseria gonorrhoeae FA 1090) (protein)
# chain: MNAIADVQSSRDLRNLPINQVGIKDLRFPITLKTAEGTQSTVARLTMTVYLPAEQKGTHMSRFVALMEQHTEVLDFAQLHRLTAEMVALLDSRAGKISVSFPFFRKKTAPVSGIRSLLDYDVSLTGEMKDGAYGHSMKVMIPVTSLCPCSKEISQYGAHNQRSHVTVSLTSDAEVGIEEVIDYVETQASCQLYGLLKRPDEKYVTEKAYENPKFVEDMVRDVATSLIADKRIKSFVVESENFESIHNHSAYAYIAYP
# B2: Neisseria gonorrhoeae GTP cyclohydrolase IB, wild type (enzyme)
# chain: B1 chain
# modifications: S-nitrosylated Cys149 (as purified from E. coli)
# Columns and labels:
# [1] = molecular target: Neisseria gonorrhoeae GCYH-IB Glu152Ala mutant (Neisseria gonorrhoeae) (UniProt Q5F9K6); test: SEC
# [2] = molecular target: Neisseria gonorrhoeae GCYH-IB Glu243Ala mutant (Neisseria gonorrhoeae) (UniProt Q5F9K6); test: SEC
# [3] = molecular target: Neisseria gonorrhoeae GCYH-IB His246Lys mutant (Neisseria gonorrhoeae) (UniProt Q5F9K6); test: SEC
# [4] = molecular target: Neisseria gonorrhoeae GCYH-IB His246Gln mutant (Neisseria gonorrhoeae) (UniProt Q5F9K6); test: SEC
# [5] = molecular target: T1, GTP cyclohydrolase IB (GCYH-IB) (Neisseria gonorrhoeae, UniProt Q5F9K6); test: competitive inhibition kinetics, fluorescence assay of neopterin; assay type: biochemical
# T1 sequence (Q5F9K6 1-257): B1 chain
# [6] = molecular target: Neisseria gonorrhoeae GCYH-IB Cys149Ala mutant (Neisseria gonorrhoeae) (UniProt Q5F9K6); test: SEC
# [7] = molecular target: Neisseria gonorrhoeae GCYH-IB His246Ala mutant (Neisseria gonorrhoeae) (UniProt Q5F9K6); test: SEC
# [8] = molecular target: Neisseria gonorrhoeae GCYH-IB His246Asp mutant (Neisseria gonorrhoeae) (UniProt Q5F9K6); test: SEC
# [9] = molecular target: Neisseria gonorrhoeae GCYH-IB Cys149Ser mutant (Neisseria gonorrhoeae) (UniProt Q5F9K6); test: SEC
# [10] = molecular target: Neisseria gonorrhoeae GCYH-IB His246Asn mutant (Neisseria gonorrhoeae) (UniProt Q5F9K6); test: SEC
# [11] = molecular target: GTP cyclohydrolase IB (GCYH-IB) (Neisseria gonorrhoeae, UniProt Q5F9K6); test: X-ray crystal structure at […] Å; assay type: biochemical
# [12] = substrate: Nc1nc2c(ncn2[C@@H]2O[C@H](COP(=O)(O)OP(=O)(O)OP(=O)(O)O)[C@@H](O)[C@H]2O)c(=O)[nH]1; test: steady-state kinetics; assay type: biochemical, Neisseria gonorrhoeae; details: Mn2+ active site
# [13] = molecular target: the molecule itself; test: crystal structure
molecule,measurement,setting,value
Neisseria gonorrhoeae GCYH-IB Glu152Ala mutant (from UniProt Q5F9K6 1-257) (enzyme),stoichiometry N,[1],4
Neisseria gonorrhoeae GCYH-IB Glu243Ala mutant (from UniProt Q5F9K6 1-257) (enzyme),stoichiometry N,[2],4
Neisseria gonorrhoeae GCYH-IB His246Lys mutant (from UniProt Q5F9K6 1-257) (enzyme),stoichiometry N,[3],4
Neisseria gonorrhoeae GCYH-IB His246Gln mutant (from UniProt Q5F9K6 1-257) (enzyme),stoichiometry N,[4],4
Nc1nc2c(ncn2[C@H]2C[C@H](O)[C@@H](COP(=O)(O)OP(=O)(O)OP(=O)(O)O)O2)c(=O)[nH]1 [2′-deoxyGTP],Ki,[5],164 µM
Nc1nc2c(ccn2[C@@H]2O[C@H](COP(=O)(O)OP(=O)(O)OP(=O)(O)O)[C@@H](O)[C@H]2O)c(=O)[nH]1 [7-deaza-GTP],Ki,[5],45.7 µM
Neisseria gonorrhoeae GCYH-IB Cys149Ala mutant (from UniProt Q5F9K6 1-257) (enzyme),stoichiometry N,[6],4
Neisseria gonorrhoeae GCYH-IB His246Ala mutant (from UniProt Q5F9K6 1-257) (enzyme),stoichiometry N,[7],4
Neisseria gonorrhoeae GCYH-IB His246Asp mutant (from UniProt Q5F9K6 1-257) (enzyme),stoichiometry N,[8],4
Neisseria gonorrhoeae GCYH-IB Cys149Ser mutant (from UniProt Q5F9K6 1-257) (enzyme),stoichiometry N,[9],4
Neisseria gonorrhoeae GCYH-IB His246Asn mutant (from UniProt Q5F9K6 1-257) (enzyme),stoichiometry N,[10],4
Nc1nc2c([nH]c(=O)n2[C@@H]2O[C@H](CO[P@@](=O)(O)O[P@@](=O)(O)OP(=O)(O)O)[C@@H](O)[C@H]2O)c(=O)[nH]1 [8-oxo-GTP],Ki,[11],0.149 µM
B1,Km,[12],9.15 µM
B2,stoichiometry N,[13],4
